The subject of data set [1] is HeLa Kyoto. Briefly: solubility change mitosis vs G1/S (difference of NP-40 vs SDS log2 ratios) (log2 ratio difference); higher = more soluble in mitosis.
Data set [2] concerns HeLa Kyoto. Put plainly: thermal stability score vs G1/S (z-score of summed log2 fold changes over temperatures); higher = more thermally stable than in G1/S.
Data set [3] relates to HeLa Kyoto. Put plainly: solubility in G1/S (NP-40 vs SDS abundance) (log2 ratio); higher = more soluble. Conditions: cell cycle stage: G1/S.
Data set [4] deals with HeLa Kyoto. Briefly: melting temperature (median over replicates), in situ; higher = more thermally stable.
The mark [5] stands for this setting: cell cycle stage: early G1 (4.5 h after nocodazole release).
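Wherever melting temperature (median over replicates), in situ is given: HeLa Kyoto cells synchronized by double thymidine or nocodazole block, proteins quantified by TMT10plex mass spectrometry, three independent biological replicates.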
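Wherever solubility change mitosis vs G1/S (difference of NP-40 vs SDS log2 ratios) is given: synchronized HeLa Kyoto cells (double thymidine block for G1/S, nocodazole release for mitosis), protein amounts in NP-40 versus SDS lysates quantified by mass spectrometry, three biological replicates.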
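Wherever solubility in G1/S (NP-40 vs SDS abundance) is given: HeLa Kyoto cells arrested at G1/S by double thymidine block, proteins quantified by TMT10plex mass spectrometry in mild NP-40 versus SDS extracts, three biological replicates.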
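Wherever thermal stability score vs G1/S (z-score of summed log2 fold changes over temperatures) is given: synchronized HeLa Kyoto cells, proteins quantified by TMT10plex mass spectrometry, three biological replicates, mitosis taken 0.5 h after nocodazole release, G1/S directly after double thymidine block.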

For the sequence “MDFLMSGLAACGACVFTNPLEVVKTRMQLQGELQAPGTYQRHYRNVFHAFITIGKVDGLAALQKGLAPALLYQFLMNGIRLGTYGLAEAGGYLHTAEGTHSPARSAAAGAMAGVMGAYLGSPIYMVKTHLQAQAASEIAVGHQYKHQGMFQALTEIGQKHGLVGLWRGALGGLPRVIVGSSTQLCTFSSTKDLLSQWEIFPPQSWKLALVAAMMSGIAVVLAMAPFDVACTRLYNQPTDAQGKGLMYRGILDALLQTARTEGIFGMYKGIGASYFRLGPHTILSLFFWDQLRSLYYTDTK [SLC25A35]”, in the data set with HeLa Kyoto [1], the “solubility change mitosis (log2)” value was -0.137. The thermal stability score in the data set with HeLa Kyoto [2] (setting [5]) was 0.653; in the data set with HeLa Kyoto [2] (cell cycle stage: mitosis), -0.326. In the data set on HeLa Kyoto [3], the “solubility in G1/S (log2)” value is 0.0544. Besides, the results for the melting temperature with HeLa Kyoto [4] (cell cycle stage: G1/S) and in the data set on HeLa Kyoto [4] (cell cycle stage: mitosis) were 56.2 °C and 54.3 °C, respectively.

As to “MDFNMKKLASDAGIFFTRAVQFTEEKFGQAEKTELDAHFENLLARADSTKNWTEKILRQTEVLLQPNPSARVEEFLYEKLDRKVPSRVTNGELLAQYMADAASELGPTTPYGKTLIKVAEAEKQLGAAERDFIHTASISFLTPLRNFLEGDWKTISKERRLLQNRRLDLDACKARLKKAKAAEAKATTVPDFQETRPRNYILSASASALWNDEVDKAEQELRVAQTEFDRQAEVTRLLLEGISSTHVNHLRCLHEFVKSQTTYYAQCYRHMLDLQKQLGRFPGTFVGTTEPASPPLSSTSPTTAAATMPVVPSVASLAPPGEASLCLEEVAPPASGTRKARVLYDYEAADSSELALLADELITVYSLPGMDPDWLIGERGNKKGKVPVTYLELLS [SH3GLB2]”, the “solubility change mitosis (log2)” value in the data set on HeLa Kyoto [1] is -0.0988. Besides, the thermal stability score with HeLa Kyoto [2] (setting [5]) was -1.15; with HeLa Kyoto [2] (cell cycle stage: mitosis) it was 0.211. Further, the “solubility in G1/S (log2)” value in the data set with HeLa Kyoto [3] came out at 0.445. Moreover, the melting temperature with HeLa Kyoto [4] (cell cycle stage: G1/S) was 49.7 °C; with HeLa Kyoto [4] (cell cycle stage: mitosis) it was 50.1 °C.

In the case of “MDFSKFLADDFDVKEWINAAFRAGSKEAASGKADGHAATLVMKLQLFIQEVNHAVEETSHQALQNMPKVLRDVEALKQEASFLKEQMILVKEDIKKFEQDTSQSMQVLVEIDQVKSRMQLAAESLQEADKWSTLSADIEETFKTQDIAVISAKLTGMQNSLMMLVDTPDYSEKCVHLEALKNRLEALASPQIVAAFTSQAVDQSKVFVKVFTEIDRMPQLLAYYYKCHKVQLLAAWQELCQSDLSLDRQLTGLYDALLGAWHTQIQWATQVFQKPHEVVMVLLIQTLGALMPSLPSCLSNGVERAGPEQELTRLLEFYDATAHFAKGLEMALLPHLHEHNLVKVTELVDAVYDPYKPYQLKYGDMEESNLLIQMSAVPLEHGEVIDCVQELSHSVNKLFGLASAAVDRCVRFTNGLGTCGLLSALKSLFAKYVSDFTSTLQSIRKKCKLDHIPPNSLFQEDWTAFQNSIRIIATCGELLRHCGDFEQQLANRILSTAGKYLSDSCSPRSLAGFQESILTDKKNSAKNPWQEYNYLQKDNPAEYASLMEILYTLKEKGSSNHNLLAAPRAALTRLNQQAHQLAFDSVFLRIKQQLLLISKMDSWNTAGIGETLTDELPAFSLTPLEYISNIGQYIMSLPLNLEPFVTQEDSALELALHAGKLPFPPEQGDELPELDNMADNWLGSIARATMQTYCDAILQIPELSPHSAKQLATDIDYLINVMDALGLQPSRTLQHIVTLLKTRPEDYRQVSKGLPRRLATTVATMRSVNY [COG7]”, the “solubility change mitosis (log2)” value with HeLa Kyoto [1] was -0.0565. The thermal stability score with HeLa Kyoto [2] (setting [5]) was 0.766; in the data set on HeLa Kyoto [2] (cell cycle stage: mitosis), 1.31. Moreover, the “solubility in G1/S (log2)” value with HeLa Kyoto [3] worked out at 0.165. The results for the melting temperature in the data set with HeLa Kyoto [4] (cell cycle stage: G1/S) and in the data set on HeLa Kyoto [4] (cell cycle stage: mitosis) were 48.8 °C and 48.7 °C, respectively.

Consider “MDGAAGPGDGPAREALQSLSQRLRVQEQEMELVKAALAEALRLLRLQVPPSSLQGSGTPAPPGDSLAAPPGLPPTCTPSLVSRGTQTETEVELKSSPGPPGLSNGPPAPQGASEEPSGTQSEGGGSSSSGAGSPGPPGILRPLQPPQRADTPRRNSSSSSSPSERPRQKLSRKAISSANLLVRSGSTESRGGKDPLSSPGGPGSRRSNYNLEGISVKMFLRGRPITMYIPSGIRSLEELPSGPPPETLSLDWVYGYRGRDSRSNLFVLRSGEVVYFIACVVVLYRPGGGPGGPGGGGQRHYRGHTDCVRCLAVHPDGVRVASGQTAGVDKDGKPLQPVVHIWDSETLLKLQEIGLGAFERGVGALAFSAADQGAFLCVVDDSNEHMLSVWDCSRGMKLAEIKSTNDSVLAVGFNPRDSSCIVTSGKSHVHFWNWSGGVGVPGNGTLTRKQGVFGKYKKPKFIPCFVFLPDGDILTGDSEGNILTWGRSPSDSKTPGRGGAKETYGIVAQAHAHEGSIFALCLRRDGTVLSGGGRDRRLVQWGPGLVALQEAEIPEHFGAVRAIAEGLGSELLVGTTKNALLRGDLAQGFSPVIQGHTDELWGLCTHPSQNRFLTCGHDRQLCLWDGESHALAWSIDLKETGLCADFHPSGAVVAVGLNTGRWLVLDTETREIVSDVIDGNEQLSVVRYSPDGLYLAIGSHDNVIYIYSVSSDGAKSSRFGRCMGHSSFITHLDWSKDGNFIMSNSGDYEILYWDVAGGCKQLKNRYESRDREWATYTCVLGFHVYGVWPDGSDGTDINSLCRSHNERVVAVADDFCKVHLFQYPCARAKAPSRMYGGHGSHVTSVRFTHDDSHLVSLGGKDASIFQWRVLGAGGAGPAPATPSRTPSLSPASSLDV [EML3]”, for which the “solubility change mitosis (log2)” value in the data set with HeLa Kyoto [1] is -0.215. The thermal stability score in the data set with HeLa Kyoto [2] (setting [5]) was -0.497; with HeLa Kyoto [2] (cell cycle stage: mitosis) it was 0.0727. The “solubility in G1/S (log2)” value with HeLa Kyoto [3] turned out to be 0.0248. The figures for the melting temperature in the data set on HeLa Kyoto [4] (cell cycle stage: G1/S) and in the data set on HeLa Kyoto [4] (cell cycle stage: mitosis) were 51.6 °C and 52 °C, respectively.

As to “MDGDGDPESVGQPEEASPEEQPEEASAEEERPEDQQEEEAAAAAAYLDELPEPLLLRVLAALPAAELVQACRLVCLRWKELVDGAPLWLLKCQQEGLVPEGGVEEERDHWQQFYFLSKRRRNLLRNPCGEEDLEGWCDVEHGGDGWRVEELPGDSGVEFTHDESVKKYFASSFEWCRKAQVIDLQAEGYWEELLDTTQPAIVVKDWYSGRSDAGCLYELTVKLLSEHENVLAEFSSGQVAVPQDSDGGGWMEISHTFTDYGPGVRFVRFEHGGQDSVYWKGWFGARVTNSSVWVEP [FBXO2]”, the “solubility change mitosis (log2)” value in the data set with HeLa Kyoto [1] is -0.206. For the same sequence, the figures for the thermal stability score in the data set with HeLa Kyoto [2] (setting [5]) and with HeLa Kyoto [2] (cell cycle stage: mitosis) were 0.487 and -0.484, respectively. Further, in the data set on HeLa Kyoto [3], the “solubility in G1/S (log2)” value is -0.047. Further, the melting temperature was determined as 51.9 °C in the data set on HeLa Kyoto [4] (cell cycle stage: G1/S) and 50.8 °C in the data set on HeLa Kyoto [4] (cell cycle stage: mitosis).

(Values after the supplement of paper PMC5998384.)
